Experiments:
Type in all cases: in vivo
hair follicles [1] = experiment: Hair growth in young mice, topical application to shaved dorsal skin; settings: 2-month old male ICR mice; for time until hair growth was observed after the treatment: water control 15-17 days
Procedure: To study the effect of lactoferrin in hair growth in young mice, five male ICR (outbred) mice, each 2 months old, were shaved to expose a portion of dorsal skin. For each treated mouse, the exposed portion of dorsal skin was further marked with three areas as illustrated in FIG. 1A to be subsequently administered different treatments. Referring to FIG. 1B, the three marked areas (from left to right) were treated by spreading topically on the exposed skin areas 60 μl of bovine lactoferrin (as an aqueous solution of 100 mg/ml), 60 μl of bovine lactoferrin (of 200 mg/ml) and 60 μl of control vehicle (water), respectively, on a twice daily basis. Observation for hair growth in the marked areas was made daily after the first treatment. […] The hair growth was observed on all five mice administered 200 mg/ml of lactoferrin 2 to 4 days after the treatment.
Hematoxylin and Eosin (H&E) staining was performed to microscopically examine the skin area treated with 200 mg/ml of lactoferrin or the control vehicle for 14 days. […] Thus, the proliferation of the anagen phase hair follicles evidently reflected the hair growth observed in the lactoferrin-treated area.

hair follicles [2] = experiment: Hair growth in aged mice, topical application to shaved dorsal skin; settings: 11-month old male ICR mice; for time until hair began to grow on the treated areas after the treatment: water control 21-23 days
Procedure: To further test whether lactoferrin could induce hair growth in aged mice, five male ICR mice, each 11 months old, were similarly shaved and marked with three areas of the exposed dorsal skin as described in Example 1. The marked areas of the mice were applied by spreading topically on the exposed skin areas 60 μl of aqueous solutions of bovine lactoferrin (100 mg/ml), 60 μl of bovine lactoferrin (200 mg/ml) and 60 μl of control vehicle (water) twice a day. Observation for hair growth in the marked areas was made daily after the first treatment. […] In general, the mice treated with 200 mg/ml of lactoferrin began to grow hair on the treated areas 4-6 days after the treatment. […] Spontaneous hair growth in the control area was only observed 21-23 days after the treatment. The hair growth-promoting effect of lactoferrin was consistently observed in all tested mice.
The H&E staining method was performed in a manner similar to Example 1 to examine the skin area treated with 200 mg/ml of lactoferrin or the control vehicle for 14 days. […] Thus, the hair follicles are clearly activated or triggered to re-enter from the telogen-phase to the anagen-phase. The activation of the hair follicles also reflects the hair growth observed in the lactoferrin-treated area.

hair follicles [3] = experiment: Hair growth in 4-month old female mice, topical application to shaved dorsal skin; settings: 60 μl of 200 mg/ml topically twice daily, after 10 days, not seen with control vehicle
Procedure: The marked areas of the mice were applied by spreading topically on the exposed skin areas 60 μl of aqueous solutions of bovine lactoferrin (200 mg/ml), 60 μl of control vehicle (water), and 60 μl of bovine lactoferricin, obtained as set forth in Example 3, (200 mg/ml) twice daily. Observation for hair growth in the marked areas is made daily after the first treatment. […] The hair growth-promoting effect of lactoferrin or lactoferricin was consistently observed in all tested mice. Although lactoferricin was prepared by the method described in Example 3 above, the present invention should not be limited to use only lactoferricin prepared in such manner. Lactoferricin prepared by other methods would still fall within the scope of the present invention.

[4] = 200 mg/ml, 14 days of treatment, H&E histology

B1: lactoferrin (protein, UniProt P24627 20-708, looked up)
Lactotransferrin: APRKNVRWCTISQPEWFKCRRWQWRMKKLGAPSITCVRRAFALECIRAIAEKKADAVTLDGGMVFEAGRDPYKLRPVAAEIYGTKESPQTHYYAVAVVKKGSNFQLDQLQGRKSCHTGLGRSAGWIIPMGILRPYLSWTESLEPLQGAVAKFFSASCVPCIDRQAYPNLCQLCKGEGENQCACSSREPYFGYSGAFKCLQDGAGDVAFVKETTVFENLPEKADRDQYELLCLNNSRAPVDAFKECHLAQVPSHAVVARSVDGKEDLIWKLLSKAQEKFGKNKSRSFQLFGSPPGQRDLLFKDSALGFLRIPSKVDSALYLGSRYLTTLKNLRETAEEVKARYTRVVWCAVGPEEQKKCQQWSQQSGQNVTCATASTTDDCIVLVLKGEADALNLDGGYIYTAGKCGLVPVLAENRKSSKHSSLDCVLRPTEGYLAVAVVKKANEGLTWNSLKDKKSCHTAVDRTAGWNIPMGLIVNQTGSCAFDEFFSQSCAPGADPKSRLCALCAGDDQGLDKCVPNSKEKYYGYTGAFRCLAEDVGDVAFVKNDTVWENTNGESTADWAKNLNREDFRLLCLDGTRKPVTEAQSCHLAVAPNHAVVSRSDRAAHVKQVLLHQQALFGKNGKNCPDKFCLFKSETKNLLFNDNTECLAKLGGRPTYEEYLGTEYVTAIANLKKCSTSPLLEACAFLTR
notes: 78-80 kDa glycoprotein; commercially obtained bovine lactoferrin applied as aqueous solution
- number of anagen phase hair follicles relative to control vehicle-treated area (hair follicles [1]; [4]): approximately two-fold
- skin thickness versus control vehicle-treated skin (hair follicles [1]; [4]): no significant difference
- time until hair growth was observed after the treatment (hair follicles [1]; 60 μl of 100 mg/ml aqueous solution topically twice daily): 3 to 5 days
- time until hair growth was observed after the treatment (hair follicles [1]; 60 μl of 200 mg/ml aqueous solution topically twice daily): 2 to 4 days
- speed of hair growth versus control vehicle-treated skin (hair follicles [1]; lactoferrin-treated skin (100 and 200 mg/ml), twice daily): more rapid hair growth
- subcutaneous fat and skin thickness versus control area (hair follicles [2]; 200 mg/ml, 14 days, H&E): increased subcutaneous fat and increased thickness of skin
- hair follicle phase in histological examination (hair follicles [2]; 200 mg/ml, 14 days, H&E, control area uniform telogen-phase follicles): a large number of anagen-phase (actively growing stage) hair follicles
- hair growth observed in the treated skin area (hair follicles [2]; 200 mg/ml, after 11 days of treatment, not seen with control vehicle): prominent hair growth
- time until hair began to grow on the treated areas after the treatment (hair follicles [2]; 60 μl of 100 mg/ml topically twice a day): 6 to 8 days
- time until hair began to grow on the treated areas after the treatment (hair follicles [2]; 60 μl of 200 mg/ml topically twice a day): 4 to 6 days
- inflammation and morphological abnormalities of the treated skin (hair follicles [2]; topical lactoferrin twice a day): no inflammation and morphological abnormalities
- hair growth observed in the treated skin area (hair follicles [3]): prominent hair growth
